Source: patent US20080292639A1

Biological target: native amyloid plaques in unfixed brain sections of Tg2576 APP transgenic mice (human) (UniProt P05067)
Experiment: cell-based or functional assay

Sequence of native amyloid plaques in unfixed brain sections of Tg2576 APP transgenic mice (human) (P05067 672-713 limits assumed): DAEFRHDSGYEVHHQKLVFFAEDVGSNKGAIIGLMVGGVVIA

Row | EC50 of antibody induced phagocytosis of amyloid [µg/mL] | Substance
1 | 0.8 | mAb 4G8 (commercially available anti-Aβ antibody)
2 | 5 | mAb 6E10 (antibody)
